Reference: US20240390468A1 (IMMUNOVACCINE TECHNOLOGIES, published 2024)

Columns and labels:
[1] = molecular target: T1, MHC class 1 allele A*02:01; test: REVEAL R-score, HLA-A*02:01
T1 construct: also called HLA-A2; HLA-A*02:01

[2] = molecular target: T1, MHC class 1 allele A*02:01; test: REVEAL peptide-MHC binding assay, HLA-A*02:01
[3] = molecular target: T1, MHC class 1 allele A*02:01; test: REVEAL off-rate assay, HLA-A*02:01
[4] = molecular target: T1, MHC class 1 allele A*02:01; test: REVEAL kinetic score, HLA-A*02:01
[5] = molecular target: T1, MHC class 1 allele A*02:01; test: REVEAL on-rate assay, HLA-A*02:01

B1: MAGE-A9 223 (MAGE-A9 peptide antigen 223, ALSVMGVYV) (peptide)
peptide: ALSVMGVYV
notes: also called p223; M9-A2-223
B1 was tested, and the R-score [1] was 26, the REVEAL score [2] was 199 and the “Off-rate T1/2” value [3] was greater than 120 h. For the same binder, the Kinetic score [4] was 13.1 and the “On-rate T1/2” value [5] was 9.17 h.

B2: SurA2.M (survivin peptide antigen HLA-A2, LMLGEFLKL) (peptide)
peptide: LMLGEFLKL
For B2, the R-score [1] was 22.1, the REVEAL score [2] was 172 and the “Off-rate T1/2” value [3] was greater than 120 h. For the same binder, the Kinetic score [4] was 12.8 and the “On-rate T1/2” value [5] was 9.36 h.

B3: MAGE-A9 111 (MAGE-A9 peptide antigen 111, KVAELVHFL) (peptide)
peptide: KVAELVHFL
notes: also called p111
In the case of B3, the R-score [1] is reported as 20.9, the REVEAL score [2] is reported as 166 and the “Off-rate T1/2” value [3] is reported as greater than 120 h. The Kinetic score [4] was 12.6 and the “On-rate T1/2” value [5] was 9.52 h.

B4: MAGE-A9 270 (MAGE-A9 peptide antigen 270, FLWGSKAHA) (peptide)
peptide: FLWGSKAHA
notes: also called p270; M9-A2-270
For B4, the R-score [1] was 22.1, the REVEAL score [2] was 173 and the “Off-rate T1/2” value [3] was greater than 120 h. The Kinetic score [4] was 12.7 and the “On-rate T1/2” value [5] was 9.43 h.
